These results are taken from patent US20050164163A1 (MEDICAL RESEARCH COUNCIL, published 2005).

The target in assay [1] is T1, HSV-1 POL (UL30 protein, catalytic subunit of the HSV-1 DNA polymerase) (HSV-1, UniProt P04293 1-1235).
T1 construct: mature; Purified from Sf cells infected with baculovirus AcUL30
T1 sequence (looked up): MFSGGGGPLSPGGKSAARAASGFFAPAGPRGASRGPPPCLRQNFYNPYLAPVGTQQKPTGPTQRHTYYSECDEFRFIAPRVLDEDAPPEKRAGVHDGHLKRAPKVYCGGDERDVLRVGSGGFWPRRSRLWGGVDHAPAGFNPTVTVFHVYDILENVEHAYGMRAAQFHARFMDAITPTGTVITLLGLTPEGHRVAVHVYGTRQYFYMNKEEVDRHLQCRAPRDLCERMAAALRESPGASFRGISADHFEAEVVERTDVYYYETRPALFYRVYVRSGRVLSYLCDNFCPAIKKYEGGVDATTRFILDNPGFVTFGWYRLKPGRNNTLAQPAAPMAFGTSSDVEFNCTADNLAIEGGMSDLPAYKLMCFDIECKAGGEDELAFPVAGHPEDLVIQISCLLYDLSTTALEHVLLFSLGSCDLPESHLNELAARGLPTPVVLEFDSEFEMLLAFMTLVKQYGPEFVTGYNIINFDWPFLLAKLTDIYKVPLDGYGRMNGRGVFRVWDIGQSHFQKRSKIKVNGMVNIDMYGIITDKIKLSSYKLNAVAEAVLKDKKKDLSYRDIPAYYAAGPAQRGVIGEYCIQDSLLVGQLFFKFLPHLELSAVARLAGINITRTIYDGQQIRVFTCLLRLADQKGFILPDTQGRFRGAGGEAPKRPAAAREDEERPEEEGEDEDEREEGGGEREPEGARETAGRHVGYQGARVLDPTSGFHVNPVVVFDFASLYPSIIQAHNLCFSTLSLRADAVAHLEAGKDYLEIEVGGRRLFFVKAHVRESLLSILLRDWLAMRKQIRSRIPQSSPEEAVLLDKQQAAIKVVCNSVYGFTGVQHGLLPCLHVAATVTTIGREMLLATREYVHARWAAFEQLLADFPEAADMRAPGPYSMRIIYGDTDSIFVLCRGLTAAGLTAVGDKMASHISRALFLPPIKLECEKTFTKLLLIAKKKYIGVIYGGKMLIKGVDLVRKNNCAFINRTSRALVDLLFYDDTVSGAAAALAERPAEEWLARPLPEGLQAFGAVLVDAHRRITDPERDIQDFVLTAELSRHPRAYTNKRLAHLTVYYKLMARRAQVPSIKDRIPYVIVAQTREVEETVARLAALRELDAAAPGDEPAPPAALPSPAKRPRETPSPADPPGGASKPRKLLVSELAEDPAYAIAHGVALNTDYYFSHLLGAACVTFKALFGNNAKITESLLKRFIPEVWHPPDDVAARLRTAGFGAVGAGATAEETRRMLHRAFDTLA
Briefly: competition ELISA: peptide incubated with POL, then added to UL8-coated wells; average of independent experiments.

The target of assay [2] is T1, HSV-1 POL (UL30 protein, catalytic …). Description: competition ELISA of FIG. 7: peptide incubated with POL 15 min, then added to UL8-coated wells. Background: In an ELISA, binding on a coated surface is turned into a signal by an enzyme label.
The target of assay [3] is T2, HCMV UL54 protein (HCMV DNA polymerase) (HCMV strain AD169, UniProt P08546 1-1242).
T2 construct: mature; Purified from Sf cells infected with AcUL54
T2 sequence: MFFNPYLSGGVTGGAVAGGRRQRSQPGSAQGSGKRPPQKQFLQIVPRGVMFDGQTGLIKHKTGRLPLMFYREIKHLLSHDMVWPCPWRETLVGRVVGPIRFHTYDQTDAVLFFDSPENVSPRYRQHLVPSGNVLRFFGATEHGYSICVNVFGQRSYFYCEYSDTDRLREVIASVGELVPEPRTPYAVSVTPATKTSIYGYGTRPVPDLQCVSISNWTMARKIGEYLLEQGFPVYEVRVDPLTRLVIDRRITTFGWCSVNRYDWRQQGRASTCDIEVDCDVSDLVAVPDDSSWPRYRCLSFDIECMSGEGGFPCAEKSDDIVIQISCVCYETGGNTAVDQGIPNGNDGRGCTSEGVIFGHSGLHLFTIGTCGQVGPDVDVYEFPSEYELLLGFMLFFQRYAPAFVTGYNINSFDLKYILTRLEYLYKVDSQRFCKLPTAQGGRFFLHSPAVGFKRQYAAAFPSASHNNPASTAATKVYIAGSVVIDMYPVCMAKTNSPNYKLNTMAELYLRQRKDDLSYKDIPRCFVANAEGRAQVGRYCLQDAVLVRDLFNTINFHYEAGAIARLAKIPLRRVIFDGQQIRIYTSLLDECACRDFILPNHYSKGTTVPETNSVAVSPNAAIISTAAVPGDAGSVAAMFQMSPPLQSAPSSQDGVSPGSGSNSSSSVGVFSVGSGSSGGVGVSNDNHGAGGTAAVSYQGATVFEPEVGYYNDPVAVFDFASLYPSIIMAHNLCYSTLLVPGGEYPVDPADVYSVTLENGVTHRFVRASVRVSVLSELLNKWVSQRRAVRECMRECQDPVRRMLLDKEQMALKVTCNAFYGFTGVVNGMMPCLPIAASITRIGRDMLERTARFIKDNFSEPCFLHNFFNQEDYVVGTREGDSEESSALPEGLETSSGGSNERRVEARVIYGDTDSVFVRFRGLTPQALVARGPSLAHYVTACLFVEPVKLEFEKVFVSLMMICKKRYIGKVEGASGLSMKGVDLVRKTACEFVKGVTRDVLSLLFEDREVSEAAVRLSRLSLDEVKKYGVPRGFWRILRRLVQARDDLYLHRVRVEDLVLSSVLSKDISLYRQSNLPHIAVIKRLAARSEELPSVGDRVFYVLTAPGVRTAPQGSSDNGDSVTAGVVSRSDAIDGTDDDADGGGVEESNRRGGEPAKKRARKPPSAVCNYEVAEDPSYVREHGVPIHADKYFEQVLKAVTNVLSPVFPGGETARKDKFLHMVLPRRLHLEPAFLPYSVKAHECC
Description: ELISA, UL102 coated (0 to 0.4 µg), UL54 added (0 to 0.6 µg), detected with antiserum 144.

The target of assay [4] is T1, HSV-1 POL (UL30 protein, catalytic …). Description: competition ELISA: peptide incubated with POL 15 min, then added to UL8-coated wells.

B1: Peptide 7 (Table 2), UL8 amino acids 719-738 (peptide)
peptide: IELVFTGVLAGVWGEGGKFV
notes: Synthetic 20-residue peptide from HSV-1 UL8
What is called IC50 is the midpoint of a concentration-inhibition curve. Lower therefore signals higher potency. On to B1, for which the IC50 was 2250 nM in assay [1] and ~1000 nM in assay [2].

B2: HCMV UL102 protein (other)
chain: MTAQPPLHHRHHPYTLFGTSCHLSWYGLLEASVPIVQCLFLDLGGGRAEPRLHTFVVRGDRLPPAEVRAVHRASYAALASAVTTDADERRRGLEQRSAVLARVLLEGSALIRVLARTFTPVQIQTDASGVEILEAAPALGVETAALSNALSLFHVAKLVVIGSYPEVHEPRVVTHTAERVSEEYGTHAHKKLRRGYYAYDLAMSFRVGTHKYVLERDDEAVLARLFEVREVCFLRTCLRLVTPVGFVAVAVTDEQCCLLLQSAWTHLYDVLFRGFAGQPPLRDYLGPDLFETGAARSFFFPGFPPVPVYAVHGLHTLMRETALDAAAEVLSWCGLPDIVGSAGKLEVEPCALSLGVPEDEWQVFGTEAGGGAVRLNATAFRERPAGGDRRWLLPPLPRDDGDGENNVVEVSSSTGGAHPPSDDATFTVHVRDATLHRVLIVDLVERVLAKCVRARDFNPYVRYSHRLHTYAVCEKFIENLRFRSRRAFWQIQSLLGYISEHVTSACASAGLLWVLSRGHREFYVYDGYSGHGPVSAEVCVRTVVDCYWRKLFGGDDPGPTCRVQESAPGVLLVWGDERLVGPFNFFYGNGGAGGSPLHGVVGGFAAGHCGGACCAGCVVTHRHSSGGGGSGVGDADHASGGGLDAAAGSGHNGGSDRVSPSTPPAALGGCCCAAGGDWLSAVGHVLGRLPALLRERVSVSELEAVYREILFRFVARRNDVDFWLLRFQPGENEVRPHAGVIDCAPFHGVWAEQGQIIVQSRDTALAADIGYGVYVDKAFAMLTACVEVWARELLSSSTASTTACSSSSVLSSALPSVTSSSSGTATVSPPSCSSSSATWLEERDEWVRSLAVDAQHAAKRVASEGLRFFRLNA
notes: mature; Purified from Sf cells infected with AcUL102; The 873-residue form follows Smith and Pari (1995)
For B2, in assay [3], the binding result was “binds”.

B3: Peptide 5 (Table 2), UL8 residues 722-750 (peptide)
peptide: VFTGVLAGVWGEGGKFVYPFDDKMSFLFA
notes: Synthetic peptide, C-terminal 29 amino acids of HSV-1 UL8
As for B3, the binding result in assay [4] is “binds”.
